Experimental data taken from patent US20200339690A1 (JOUNCE THERAPEUTICS, published 2020).
One block for each binder: values may come before it.

How the values were obtained:
human LILRA4 = biological target: T1, human LILRA4 (human, UniProt P59901 24-499); assay: flow cytometry, LILRA4 CHOs
T1 construct: Over-expressed on CHO-s cells; also called hLILRA4

[1] = biological target: T2, Cyno Monocytes / Cyno Neutrophils (Macaca fascicularis); assay: flow cytometry, cyno whole blood, neutrophils
T2 construct: cell surface, primary blood cells; also called LILRB2+ populations in cyno whole blood

human LILRB2-His = human LILRB2-His (human, UniProt Q8N423 22-460); assay: SPR, Sierra Sensors MASS-2; antibody captured on anti-human Fc, LILRB2-His 65 to 0.27 nM, 1:1 Langmuir fit
human LILRB2-His, sequence (Q8N423 other isoform, or with tags, fused parts or gaps): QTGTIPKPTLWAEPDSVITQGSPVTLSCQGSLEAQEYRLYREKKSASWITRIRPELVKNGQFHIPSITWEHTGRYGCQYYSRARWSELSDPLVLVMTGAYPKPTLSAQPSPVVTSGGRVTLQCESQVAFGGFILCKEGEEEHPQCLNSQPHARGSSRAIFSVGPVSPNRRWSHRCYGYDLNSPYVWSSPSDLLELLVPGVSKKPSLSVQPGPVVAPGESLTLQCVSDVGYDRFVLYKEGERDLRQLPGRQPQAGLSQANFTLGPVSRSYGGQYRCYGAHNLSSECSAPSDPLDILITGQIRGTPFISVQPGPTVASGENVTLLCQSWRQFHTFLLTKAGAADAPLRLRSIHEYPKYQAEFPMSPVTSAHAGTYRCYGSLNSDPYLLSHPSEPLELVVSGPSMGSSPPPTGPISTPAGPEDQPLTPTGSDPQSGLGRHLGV
Method: Using a Mass-2 (Sierra Sensors) high capacity amine chip preimmobilized with AffiniPure Goat Anti-Human IgG, Fcγ Fragment Specific antibody, humanized antibodies were captured on the anti-human surface and then binding to human LILRB2-His was measured by flowing six different concentrations from 65 to 0.27 nM of the analyte over the antibody surface. The anti-LILRB2 surface was removed (10 mM Glycine, pH 2.0) and recaptured between all concentrations or buffer only cycles. The data was analyzed using the Sierra Analyzer software (version 3.1.14). All curves were double subtracted and fit to a 1:1 Langmuir Fit.

human LILRB3 = biological target: T3, human LILRB3 (human, UniProt O75022 24-631); assay: flow cytometry, LILRB3 CHOs
T3 construct: Over-expressed on CHO-s cells; also called hLILRB3

human LILRB5 = biological target: T4, human LILRB5 (human, UniProt O75023 24-590); assay: flow cytometry, LILRB5 CHOs
T4 construct: Over-expressed on CHO-s cells; also called hLILRB5
T4 sequence (O75023 24-590 P542R limits assumed): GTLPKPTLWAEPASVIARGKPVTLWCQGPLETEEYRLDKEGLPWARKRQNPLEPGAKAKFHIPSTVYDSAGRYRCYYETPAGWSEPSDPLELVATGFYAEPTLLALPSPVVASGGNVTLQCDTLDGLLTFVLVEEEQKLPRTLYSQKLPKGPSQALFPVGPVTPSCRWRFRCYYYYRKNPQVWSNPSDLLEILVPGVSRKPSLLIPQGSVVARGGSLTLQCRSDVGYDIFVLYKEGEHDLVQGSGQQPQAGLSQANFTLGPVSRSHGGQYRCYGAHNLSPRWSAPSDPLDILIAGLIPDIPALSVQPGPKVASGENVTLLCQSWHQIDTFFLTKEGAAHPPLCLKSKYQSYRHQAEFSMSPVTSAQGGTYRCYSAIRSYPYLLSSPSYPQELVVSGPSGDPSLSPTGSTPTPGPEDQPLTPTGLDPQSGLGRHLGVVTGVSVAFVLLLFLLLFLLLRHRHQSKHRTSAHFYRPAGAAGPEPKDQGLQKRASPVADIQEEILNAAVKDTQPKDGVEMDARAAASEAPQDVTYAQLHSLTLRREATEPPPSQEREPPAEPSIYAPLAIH

human LILRA5 = biological target: T5, human LILRA5 (human, UniProt A6NI73 42-299); assay: flow cytometry, LILRA5 CHOs
T5 construct: Over-expressed on CHO-s cells; also called hLILRA5
T5 sequence (A6NI73 42-299 limits assumed): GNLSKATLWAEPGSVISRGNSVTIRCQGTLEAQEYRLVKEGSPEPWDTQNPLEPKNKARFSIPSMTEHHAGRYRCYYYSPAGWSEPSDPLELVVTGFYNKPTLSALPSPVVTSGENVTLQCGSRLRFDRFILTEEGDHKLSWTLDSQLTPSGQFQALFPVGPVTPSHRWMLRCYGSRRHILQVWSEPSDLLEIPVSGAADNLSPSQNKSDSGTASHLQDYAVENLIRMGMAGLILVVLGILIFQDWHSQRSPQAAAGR

[2] = biological target: T6, human LILRB2 expressed on cells (human, UniProt Q8N423 22-597); assay: blocking of HLA-A2 tetramer on LILRB2 CHOs, flow cytometry, mAb 10 ug/mL
T6 construct: CHO-s cells over-expressing full-length human LILRB2, or primary human macrophages and dendritic cells; also called hLILRB2-CHO-s; hLILRB2+ CHO-s
T6 sequence (Q8N423 other isoform, or with tags, fused parts or gaps limits assumed): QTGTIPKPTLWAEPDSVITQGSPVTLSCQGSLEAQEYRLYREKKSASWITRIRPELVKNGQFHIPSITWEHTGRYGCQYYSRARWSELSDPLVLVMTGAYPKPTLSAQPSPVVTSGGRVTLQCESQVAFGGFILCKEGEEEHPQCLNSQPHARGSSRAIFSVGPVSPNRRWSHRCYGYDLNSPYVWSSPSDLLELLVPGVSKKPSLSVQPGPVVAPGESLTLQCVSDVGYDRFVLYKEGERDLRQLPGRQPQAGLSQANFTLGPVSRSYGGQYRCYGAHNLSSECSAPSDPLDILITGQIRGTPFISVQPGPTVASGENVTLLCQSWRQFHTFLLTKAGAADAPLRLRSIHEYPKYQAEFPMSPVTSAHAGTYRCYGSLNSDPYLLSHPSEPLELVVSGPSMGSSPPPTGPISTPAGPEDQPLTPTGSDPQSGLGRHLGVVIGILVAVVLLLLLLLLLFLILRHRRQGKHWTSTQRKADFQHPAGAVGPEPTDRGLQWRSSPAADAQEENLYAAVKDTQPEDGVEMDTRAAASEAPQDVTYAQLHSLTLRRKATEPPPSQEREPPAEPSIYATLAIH
Method: (§1) In the secondary screen, 1×10⁵ CHO-s cells over-expressing human LILRB2 were plated in 96-well round-bottom tissue culture-treated plate and washed twice with 1×DPBS (Gibco) and incubated with 10 μg/mL primary antibody (anti-LILRB2 mAbs or control) prepared in 50 μL FACS buffer (1×DPBS containing 2% HI-FBS (Sigma)+0.05% Sodium Azide). After incubation with mAbs for 30 minutes at 4° C., cells were washed twice in FACS buffer and then resuspended in 50 μL of FACS buffer containing 5 μg/mL APC-conjugated HLA-A2 or HLA-G tetramer (Fred Hutch). Cells were incubated protected from light for 30-60 minutes at 4° C. After incubation with tetramer, cells were washed in FACS buffer and re-suspended in fix buffer (1.5% paraformaldehyde diluted in 1×DPBS). Samples were analyzed using the Celesta flow cytometer analyzer (BD Biosciences). Data represent percent tetramer blocked by mAbs relative to tetramer alone, calculated according to the following equation: […]

human LILRB4 = biological target: T7, human LILRB4 (human, UniProt Q8NHJ6 22-448); assay: flow cytometry, LILRB4 CHOs
T7 construct: Over-expressed on CHO-s cells; also called hLILRB4

human LILRA6 = biological target: T8, human LILRA6 (human, UniProt Q6PI73 24-481); assay: flow cytometry, LILRA6 CHOs
T8 construct: Over-expressed on CHO-s cells; also called hLILRA6
T8 sequence (Q6PI73 24-481 limits assumed): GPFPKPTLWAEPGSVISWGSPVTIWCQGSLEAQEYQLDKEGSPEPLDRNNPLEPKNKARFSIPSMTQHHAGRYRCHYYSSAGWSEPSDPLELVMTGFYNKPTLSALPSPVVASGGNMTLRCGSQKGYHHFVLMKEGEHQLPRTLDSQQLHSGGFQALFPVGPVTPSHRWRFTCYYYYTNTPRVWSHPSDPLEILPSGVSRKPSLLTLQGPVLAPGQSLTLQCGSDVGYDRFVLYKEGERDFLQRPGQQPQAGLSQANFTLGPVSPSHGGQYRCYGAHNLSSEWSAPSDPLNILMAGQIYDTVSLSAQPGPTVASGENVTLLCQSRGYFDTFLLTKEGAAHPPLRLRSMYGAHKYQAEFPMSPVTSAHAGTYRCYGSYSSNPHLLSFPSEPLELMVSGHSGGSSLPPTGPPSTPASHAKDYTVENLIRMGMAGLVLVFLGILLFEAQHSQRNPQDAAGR

human LILRA2 = biological target: T9, human LILRA2 (human, UniProt Q8N149 24-483); assay: flow cytometry, LILRA2 CHOs
T9 construct: Over-expressed on CHO-s cells; also called hLILRA2
T9 sequence (Q8N149 24-483 S135L limits assumed): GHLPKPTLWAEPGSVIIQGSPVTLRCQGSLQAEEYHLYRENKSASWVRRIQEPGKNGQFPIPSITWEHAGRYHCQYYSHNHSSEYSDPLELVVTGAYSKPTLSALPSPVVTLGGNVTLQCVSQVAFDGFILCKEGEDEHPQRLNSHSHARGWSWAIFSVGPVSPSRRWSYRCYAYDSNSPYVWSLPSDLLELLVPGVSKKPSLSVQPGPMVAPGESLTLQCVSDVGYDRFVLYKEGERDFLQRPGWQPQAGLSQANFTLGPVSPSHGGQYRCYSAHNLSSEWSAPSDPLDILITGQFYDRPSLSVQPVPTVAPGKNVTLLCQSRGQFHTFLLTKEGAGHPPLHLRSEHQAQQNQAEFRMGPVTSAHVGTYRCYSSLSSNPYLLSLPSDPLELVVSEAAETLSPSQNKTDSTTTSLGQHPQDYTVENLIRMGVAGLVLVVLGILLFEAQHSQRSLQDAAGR

[3] = biological target: T6, human LILRB2 expressed on cells; assay: blocking of HLA-G tetramer on LILRB2 CHOs, flow cytometry, mAb 10 ug/mL
Method: as §1

[4] = biological target: T10, Rhesus Monocytes / Rhesus Neutrophils (Macaca mulatta); assay: flow cytometry, rhesus whole blood, neutrophils
T10 construct: cell surface, primary blood cells; also called LILRB2+ populations in rhesus whole blood

[5] = biological target: T6, human LILRB2 expressed on cells; assay: cell-based or functional assay
[6] = biological target: T6, human LILRB2 expressed on cells; assay: flow cytometry, human whole blood, monocytes
[7] = biological target: T6, human LILRB2 expressed on cells; assay: flow cytometry, LILRB2 CHOs
[8] = biological target: T2, Cyno Monocytes / Cyno Neutrophils; assay: flow cytometry, cyno whole blood, monocytes
human LILRA3 = biological target: T11, human LILRA3 (human, UniProt Q8N6C8 24-439); assay: flow cytometry, LILRA3 CHOs
T11 construct: Over-expressed on CHO-s cells; also called hLILRA3
T11 sequence (Q8N6C8 24-439 limits assumed): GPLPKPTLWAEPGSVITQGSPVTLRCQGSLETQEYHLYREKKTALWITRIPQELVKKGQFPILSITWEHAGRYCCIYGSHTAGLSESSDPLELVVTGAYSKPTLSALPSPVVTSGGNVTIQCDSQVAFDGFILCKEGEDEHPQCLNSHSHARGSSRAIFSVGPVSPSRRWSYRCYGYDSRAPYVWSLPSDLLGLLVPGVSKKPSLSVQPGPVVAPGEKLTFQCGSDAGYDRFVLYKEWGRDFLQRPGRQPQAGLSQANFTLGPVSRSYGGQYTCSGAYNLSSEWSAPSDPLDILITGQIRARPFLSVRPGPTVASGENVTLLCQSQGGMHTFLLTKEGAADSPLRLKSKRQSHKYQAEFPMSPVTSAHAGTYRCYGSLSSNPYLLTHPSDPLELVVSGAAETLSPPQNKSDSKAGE

human LILRB1 = biological target: T12, human LILRB1 (human, UniProt Q8NHL6 24-650); assay: flow cytometry, LILRB1 CHOs
T12 construct: Over-expressed on CHO-s cells; also called hLILRB1
T12 sequence (Q8NHL6 24-650 limits assumed): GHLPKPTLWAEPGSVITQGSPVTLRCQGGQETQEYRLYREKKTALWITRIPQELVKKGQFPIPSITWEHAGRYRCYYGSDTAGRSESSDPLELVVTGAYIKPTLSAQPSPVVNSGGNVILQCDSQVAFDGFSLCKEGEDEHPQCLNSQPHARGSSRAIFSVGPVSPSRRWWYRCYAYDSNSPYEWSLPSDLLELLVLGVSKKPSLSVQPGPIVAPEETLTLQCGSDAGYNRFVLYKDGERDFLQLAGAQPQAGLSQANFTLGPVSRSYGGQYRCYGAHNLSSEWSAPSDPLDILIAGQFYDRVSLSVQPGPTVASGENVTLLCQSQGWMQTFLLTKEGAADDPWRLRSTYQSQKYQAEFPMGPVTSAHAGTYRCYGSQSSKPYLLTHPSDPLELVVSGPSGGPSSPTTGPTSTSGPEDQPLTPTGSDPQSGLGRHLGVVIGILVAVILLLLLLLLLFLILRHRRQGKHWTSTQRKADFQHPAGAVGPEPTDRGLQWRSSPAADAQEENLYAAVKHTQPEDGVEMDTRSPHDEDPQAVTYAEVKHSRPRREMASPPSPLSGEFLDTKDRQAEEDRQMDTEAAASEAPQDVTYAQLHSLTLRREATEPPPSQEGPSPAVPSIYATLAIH

[9] = biological target: T6, human LILRB2 expressed on cells; assay: flow cytometry, human whole blood, neutrophils
[10] = biological target: T10, Rhesus Monocytes / Rhesus Neutrophils; assay: flow cytometry, rhesus whole blood, monocytes
human LILRA1 = biological target: T13, human LILRA1 (human, UniProt O75019 17-489); assay: flow cytometry, LILRA1 CHOs
T13 construct: Over-expressed on CHO-s cells; also called hLILRA1
T13 sequence (O75019 17-489 limits assumed): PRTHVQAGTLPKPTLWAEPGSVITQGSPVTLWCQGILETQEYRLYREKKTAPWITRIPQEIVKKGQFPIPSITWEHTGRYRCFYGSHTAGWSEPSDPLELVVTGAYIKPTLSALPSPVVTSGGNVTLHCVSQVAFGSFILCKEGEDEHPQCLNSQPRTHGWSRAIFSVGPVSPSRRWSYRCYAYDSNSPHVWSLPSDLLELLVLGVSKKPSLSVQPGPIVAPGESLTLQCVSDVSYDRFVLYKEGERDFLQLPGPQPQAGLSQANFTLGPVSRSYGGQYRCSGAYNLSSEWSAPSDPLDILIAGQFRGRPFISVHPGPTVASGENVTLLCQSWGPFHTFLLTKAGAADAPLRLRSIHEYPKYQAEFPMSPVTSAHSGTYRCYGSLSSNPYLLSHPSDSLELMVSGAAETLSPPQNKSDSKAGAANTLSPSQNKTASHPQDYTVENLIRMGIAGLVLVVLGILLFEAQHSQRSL

T1 sequence (P59901 other isoform, or with tags, fused parts or gaps limits assumed): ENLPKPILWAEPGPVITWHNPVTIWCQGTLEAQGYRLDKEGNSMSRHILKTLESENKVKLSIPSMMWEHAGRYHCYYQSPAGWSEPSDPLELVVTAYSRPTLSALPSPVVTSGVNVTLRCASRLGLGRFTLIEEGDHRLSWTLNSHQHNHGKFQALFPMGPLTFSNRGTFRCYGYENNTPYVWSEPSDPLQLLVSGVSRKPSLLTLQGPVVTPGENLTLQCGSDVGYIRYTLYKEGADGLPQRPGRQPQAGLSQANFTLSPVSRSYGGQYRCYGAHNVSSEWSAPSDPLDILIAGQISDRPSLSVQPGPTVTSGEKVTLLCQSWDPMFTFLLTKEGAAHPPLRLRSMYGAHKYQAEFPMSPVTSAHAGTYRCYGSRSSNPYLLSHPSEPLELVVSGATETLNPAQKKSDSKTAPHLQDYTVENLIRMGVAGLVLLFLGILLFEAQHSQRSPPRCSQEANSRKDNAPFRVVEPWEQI

binding (fold over iso) (human LILRA4): -26.8 fold over iso
binding result (human LILRA4): no binding
Cyno Neutrophils binding (fold over iso) [1]: 2.35 fold over iso
Kd (human LILRB2-His): 2.62 nM
koff (human LILRB2-His): 0.00135 s⁻¹
kon (human LILRB2-His): 515000 M⁻¹ s⁻¹
binding (fold over iso) (human LILRB3): 1.09 fold over iso
binding result (human LILRB3): no binding
binding (fold over iso) (human LILRB5): 1.19 fold over iso
binding result (human LILRB5): no binding
binding (fold over iso) (human LILRA5): -0.62 fold over iso
binding result (human LILRA5): no binding
HLA-A2:LILRB2 CHOs blocking (% blocked) [2]: 95.3 % blocked
binding (fold over iso) (human LILRB4): 1.03 fold over iso
binding result (human LILRB4): no binding
binding (fold over iso) (human LILRA6): 1.07 fold over iso
binding result (human LILRA6): no binding
binding (fold over iso) (human LILRA2): -0.51 fold over iso
binding result (human LILRA2): no binding
HLA-G:LILRB2 CHOs blocking (% blocked) [3]: 97 % blocked
Rhesus Neutrophils binding (fold over iso) [4]: 21.9 fold over iso
CCL2 production (fold over LPS alone) [5]: 1.69 fold over LPS alone
IL-6 production (fold over LPS alone) [5]: 2.72 fold over LPS alone
IL-10 production (fold over LPS alone) [5]: 0.8 fold over LPS alone
TNFa production (fold over LPS alone) [5]: 8.9 fold over LPS alone
Human Monocytes binding (fold over iso) [6]: 12.3 fold over iso
binding (fold over iso) [7]: 3.78 fold over iso
Cyno Monocytes binding (fold over iso) [8]: 17.9 fold over iso
binding (fold over iso) (human LILRA3): 0.97 fold over iso
binding result (human LILRA3): no binding
binding (fold over iso) (human LILRB1): 1.05 fold over iso
binding result (human LILRB1): no binding
Human Neutrophils binding (fold over iso) [9]: 4.5 fold over iso
Rhesus Monocytes binding (fold over iso) [10]: 6.79 fold over iso
binding (fold over iso) (human LILRA1): -3.31 fold over iso
binding result (human LILRA1): no binding
B1: J-19 (antibody, human IgG4 S228P, kappa, V domains shown)
VH: QVTLKESGPGILQPSHTLSLTCSFSGFSLNTYAMGVSWIRQPSGKGLEWLASIWWNGNKYNNPSLKSRLTVSKDTSNNQAFLKVTSVDTADTATYYCAHSRIIRFTDYVMDAWGQGASVTVSS
VL: DIQMTQSPASLSTFLGEPVTIECRASEDIYNDLAWYQQKPGKSPQLLIYNANSLHTGVPSRFSGSGSGTQYSLKINSLQSEDVASYFCQQYYDYPLTFGSGTKLEIKR
notes: Human IgG4 chimera from a rat immunization; also called J-19.h

binding (fold over iso) (human LILRA4): -1.27 fold over iso
binding result (human LILRA4): no binding
Cyno Neutrophils binding (fold over iso) [1]: 0.94 fold over iso
Kd (human LILRB2-His): 2.47 nM
koff (human LILRB2-His): 0.000913 s⁻¹
kon (human LILRB2-His): 370000 M⁻¹ s⁻¹
binding (fold over iso) (human LILRB3): 1.09 fold over iso
binding result (human LILRB3): no binding
binding (fold over iso) (human LILRB5): 1.22 fold over iso
binding result (human LILRB5): no binding
binding (fold over iso) (human LILRA5): 1.34 fold over iso
binding result (human LILRA5): no binding
HLA-A2:LILRB2 CHOs blocking (% blocked) [2]: 94.4 % blocked
binding (fold over iso) (human LILRB4): 1.03 fold over iso
binding result (human LILRB4): no binding
binding (fold over iso) (human LILRA6): 1 fold over iso
binding result (human LILRA6): no binding
binding (fold over iso) (human LILRA2): -2.52 fold over iso
binding result (human LILRA2): no binding
HLA-G:LILRB2 CHOs blocking (% blocked) [3]: 99.9 % blocked
Rhesus Neutrophils binding (fold over iso) [4]: 0.64 fold over iso
CCL2 production (fold over LPS alone) [5]: 0.96 fold over LPS alone
IL-6 production (fold over LPS alone) [5]: 3.06 fold over LPS alone
IL-10 production (fold over LPS alone) [5]: 0.81 fold over LPS alone
TNFa production (fold over LPS alone) [5]: 7.61 fold over LPS alone
Human Monocytes binding (fold over iso) [6]: 8.54 fold over iso
binding (fold over iso) [7]: 3.49 fold over iso
Cyno Monocytes binding (fold over iso) [8]: 0.71 fold over iso
binding (fold over iso) (human LILRA3): 1.02 fold over iso
binding result (human LILRA3): no binding
binding (fold over iso) (human LILRB1): 1.07 fold over iso
binding result (human LILRB1): no binding
Human Neutrophils binding (fold over iso) [9]: 2.89 fold over iso
Rhesus Monocytes binding (fold over iso) [10]: 0.88 fold over iso
binding (fold over iso) (human LILRA1): -1.63 fold over iso
binding result (human LILRA1): no binding
B2: J-11 (antibody, human IgG4 S228P, kappa, V domains shown)
VH: QVQLQQSGAELMKPGASVKLSCKATGYILTGYWIEWVKQRPGHGLEWIGEILPGSGSTNYNENFKGKATFTADTSSNTAYMQLSSLTTEDSAIYYCARAVLGYFDYWGQGTTLTVSS
VL: DIVMTQSHKFMSTSVGDRVSITCKASQDVSTAVAWYQQKPGQSPKLLIYWASTRHTGVPDRFTGSGSGTDYTLTISSVQAEDLALYYCHQHYSTYTFGGGTKLEIKR
notes: Human IgG4 chimera of murine origin; also called J-11.h

binding (fold over iso) (human LILRA4): -36.5 fold over iso
binding result (human LILRA4): no binding
Cyno Neutrophils binding (fold over iso) [1]: 0.87 fold over iso
Kd (human LILRB2-His): 2.85 nM
kon (human LILRB2-His): 1.56e+06 M⁻¹ s⁻¹
binding (fold over iso) (human LILRB3): 0.99 fold over iso
binding result (human LILRB3): no binding
binding (fold over iso) (human LILRB5): 1.03 fold over iso
binding result (human LILRB5): no binding
binding (fold over iso) (human LILRA5): 0.82 fold over iso
binding result (human LILRA5): no binding
HLA-A2:LILRB2 CHOs blocking (% blocked) [2]: 93.4 % blocked
binding (fold over iso) (human LILRB4): 1 fold over iso
binding result (human LILRB4): no binding
binding (fold over iso) (human LILRA6): 0.94 fold over iso
binding result (human LILRA6): no binding
binding (fold over iso) (human LILRA2): -1.05 fold over iso
binding result (human LILRA2): no binding
HLA-G:LILRB2 CHOs blocking (% blocked) [3]: 96.6 % blocked
Rhesus Neutrophils binding (fold over iso) [4]: 1.44 fold over iso
CCL2 production (fold over LPS alone) [5]: 1.85 fold over LPS alone
IL-6 production (fold over LPS alone) [5]: 2.57 fold over LPS alone
IL-10 production (fold over LPS alone) [5]: 0.89 fold over LPS alone
TNFa production (fold over LPS alone) [5]: 8.12 fold over LPS alone
Human Monocytes binding (fold over iso) [6]: 11.3 fold over iso
binding (fold over iso) [7]: 3.68 fold over iso
Cyno Monocytes binding (fold over iso) [8]: 0.92 fold over iso
binding (fold over iso) (human LILRA3): 1.35 fold over iso
binding result (human LILRA3): no binding
binding (fold over iso) (human LILRB1): 1.05 fold over iso
binding result (human LILRB1): no binding
Human Neutrophils binding (fold over iso) [9]: 4.55 fold over iso
Rhesus Monocytes binding (fold over iso) [10]: 1.41 fold over iso
B3: J-17 (antibody, human IgG4 S228P, kappa, V domains shown)
VH: QIQLVQSGPELKKPGETVKISCKASGYTFTTYGLSWVKQTPGKGLKWMGWINTYSGVPTYTDDFKGRFAFSLETSASTAYLQINNLKNEDTATYFCARPYDFDQVGFAYWGQGTLVTVSA
VL: SIVMTQTPKFLLVSAGDRVSITCKASQTVSSDVAWYQQKAGQSPKLLIYYASNRYTGVPDRFTGSGYGTDFTFTISTVQAEDLAVYFCQQDYSSPFTFGGGSKLEIKR
notes: Human IgG4 chimera of murine origin; also called J-17.h
